Results reported in the DeepSol protein solubility set.

experiment: soluble on expression in E. coli; label from the status in PepcDB or PDB records

Sequence | soluble on expression in E. coli
MAHHHHHHMVPVKVKWGRETFELTVDLRSTVKCFKEQLQQLTSVPVERQKIMGVKASQCNDNEVTLEAAGVAAGKTLMLIGTAAEVVRATPIVATGNKDSAVQAPASHPAEKQAVGLQNIANTCYMNAAVQMLRLVPEVRDVLNFNANDPIVSELLKLYNTMDTKRDPVVPASLWSILLAHFPTFAEVNEKGHPMQHDSQEALNALLQRINSCLPESHKRLFTGNLSQKMVCKDDPDDQPVLHDVPFLMLSCNIDAEIETLEAGLEAAFNETVKLHSEKLAREALHTRTSRIAAMPEYLFIHMVRFSWRSDIQSKAKILKPVTFPMTLDLHALCAEEYKPELEVERKRVLKRRDIEMERRRAAKNKTKLDDDEAAPAEDASNTAEPINTTVGNHSGYYELCGVISHKGRSADSGHYVFWGKYADQWMVLDDSNTAAVSEEDVKRLRGSGEAHIAYVLMYRSRDPRTKQSVIPL | soluble
MAHHHHHHMVSGFVEFEILRGKNYPQTEDDPNPCTTQVTVSVVDALSGAVLSRAQLSSIQQNSNAPFYNDTLNFRVEDAPEDVCLSISVSEHSRQKIPFVLFYGKQIIGLSKLKAKQRFVIPLFSGEEGTQQVEIGADTLDLESSGKVPFLSARIQFTKDKVFDKTDPYSDVDVSGKGLSFDGKNQLVPEGTQYVWLRLKSDKKWTNSFQYELSVAWRSRAPLEAENQGNTKSRKGTTGGMAAISAEPDSARTLGDIIIKKWCCRRTHQVLTRVCITAEKYGNKVTDLTFTPKEEVEFRTNKKERCVFLEQICKKRLEDACSNCLRQWLNRLWILFVTGVDSDPAEARALSYEVRKAVHDAQFTEADAIILQACLLFSFIPSLKYEVCQALSESDYQAAQSEKKIEVGALESPQCRVTPSQEMFTRVFISFVGSLLDTLTEAEIAKAAAEFKPAIWDAQQRIAKGAKSTIGSCKKKYEGSIFKGTGIHIDHLDKLGRRKQVPKFV | soluble
MAHHHHHHMVVFINGLPVLTFELKNSLTKQTVADAVVQYQTDRNPAELLFQLGRCIAHVAVDDAEVRFCTHLTGKTSWFLPFNQGWNSGAGNPPNPNGLRTDYLWKQVLAKESLANIIENYAQVIEEEEEDTNGRKRRTRKQIFPRFHQLRTVRALMRRSRADGVGKRYLIQHSAGSGKSNTIAWLAHQLVELKTAADNTQAQFDSVIVITDRRALDAQIARTIKAYDHVASIYGHSESADELRTFLAPGQEDHRHHGAEVPVHPDELGGTL | not soluble
MAHHHHHHMWYSNLFVAKLPRHLCDGDLLQIFSNFNPLGAKIMLDPSTGNSKGFGFVLFDKEEEGRTAYERLNRKLVRVCNSSFNLLIYPSQHNGKAVTLPSRAVYIRNIPTTMGEREVQNFLSNLAPLEYCAMRGDHHGNPVWVVYAEFDTPQNAQRVLDKLHGNSNHFGGPPIMVKYADTDEAKRERRRRREEGRLAPGPALKGACLFPPPRPGVVSLNQTQVSQSATETSPSCSPAAHHVTKTKMVAPMVEVEPRAQPLYFSTSPVTAMPPLLPVDMSYDGAAATVPLQTADCPAANGVLVLGNGQQVFLTPNAVNLHPTKFNAPPTALLVPAVDTTLVPLPPQRTLVYGPW | not soluble
MAHHHHHHMYAIADTDDILIRSNPCRLSVNGVHISVCNEDVVGDMRDRMVERWPTADGSLRRVVEALVNGRLYVPLYSLPVATADLKHLPHLRMDYVPSQNELLEIKPAAAALASSTATKGDRRGNADGSDATTSTSGASSSRGWETVFSVAEQPSTDMAAWLQHKVKRAKLEDAAGDNEEGDAASAPGGPVTPSTPTASSKTEYLPHIMFLPSTRPQFATVTHQSEEVDGADIDSAESASGVLVVNQEVWSTRSSPKFELRVAEVTIPNTDLVLRRGATSTNGVTCGVLHIYSA | soluble
MAHHHHHHMYVAIYNIGKKKNIGSIVRSCVAFRVSKIFVVSRKKNQVNFFGHMGTCEYITIEYFSSMKELKTHLRDNGILLYACEITSSAVPVTRRPFENKDTAFLFGNEGTGINDETLSYCDKVVYIPQYGNGTCSLNVSVSCAIILHHFAVWADYPEVGISGKKFVLNKCATKLERYLNPSDDLLRQISEKRAQRAATKLASPDWAAPHFADPSPDLFPG | not soluble
MAHHHHHHMYVLEGFYESVYNARWHHVVEVPDGEGTGMEVREGKSPQSWTYRAAGEFLEKNDGEEQSGALRPRLMVLTSGKGWPYSWEEDESTPDCYVNCEVDRVWQIVRNDLTELLGPDPGADFRPERRVLIGTPGIGKSLAAGSYLLYQLLQYDAEQLPMVAYVFAGRK | not soluble
MAHHHHHHMYYIYIYIYENGSAYQKDNDNTVENKLLENLYKLELIDNYDTPLSRVSRTDKGVSARINGINLRLNIKYENVPIFEIEKKYVKELKKKLKNIHIHDIKHVSNTFDARLNCIQRTYVYFFINKNYNIEKMKKAAKLFIGEHDFSNCCKKGKNVTSNRRTVLKFDIRNIDKHFYYFKIKGISFLYNQIRHMVAILFLVGKGLLDNNDVNNILNNTSTKRKNYHIADENGLLLYSFKFNDYKYNNHVNNKIFLNVMNKYIQSTMLLVSLCHPLKLENKNEDFFENLDDEDIKNDVIHNNMIKEINKK | not soluble
MAHHHHHHNEKDIGKLKKTFEAFDHNGDGVLTISEIFQCLKLNDNELDTELYFLLKQLDTDGNGLIDYTEFLAACLDHSIFQQDVICRNAFNVFDLDGDGVITKEELFNILSFSAVQVSFSKEIIENLIKEVDANNDGFIDYDEFYKMMTGAK | soluble
MAHHHHHHQTQTPSQLLQSFTTRTTDYNQLINSVGINAITPQQIQRIEKLSGKAPHHYLSRGVFLAEKSLDKFLDDVEAKKPTFIFIQKYPQKEVALEEYITLEFARYLQDAFNIQVIIQILDDIKVLNREATINEASKMSNDLMKYILAFGFNEDKTFIYTDYQYFGKMYRTISLVEKATAYNVVQPFFNFEYSDNIGKLASPSIMTASMFSQSYSHFFSSPARCLVLDSIKNVQFHSIIDQIATTLNFIQPTVLFHKMVPLLSGVTKFDIPSDHNSILLSDNAKQVERKINKLAFSGGRNTTEEHKKLGGQCDIDVSFQLLNIFSSDNAQVKDVEEKYSKGELLSGELKKIVSASMKDFIVAYDAKKKPITTAYLKAYISKTKF | soluble
MAHHHHHHSLIDGLLITELNKLTPGSSYIFLDYDGTLVPIIMNPEQSLADPELIEMLTELRSKYKLFIVSGRSPEEIKRFIPLDLNLICYHGACSIVNGKTYYYNNAQSFLGIFNEIYQSSLNLVNEFPGLRIYKKNLAVLYHFGLMKPQDVPALERVIVEISQKEHVDVYKGKMIFELRVPGVNKGIAIKNVRDEETALIAGDDATDECSFKYNEDAITIKVGPGKTSAHFRVNDYSEMREVLKLLLNNAEKRSEG | soluble
MAHHHHHHSLITANDIRAAHARGEQAMSVVLRASIITPEAREVAELLGFTITECDESVPASTSAQACKSESQRIREAIIAQLPEGQFTESLVAQLMEKVLKEKQSLELGTMQPSFTSVTGKGGVKVIDGSSVKFGRFDGAEPHCVGLTDLVTEQDGSSMAAGFMQWDNAFFPWTLNYDEIDMVLEGELHVRHEGETMIAKAGDVMFIPKGSSIEFGTPTSVRFLYVAWPANWQSVEG | soluble
MAHHHHHHSLKKPTHSGSGQIRIIGGQWRGRKLPVPDSPGLRPTTDRVRETLFNWLAPVMVDAHCLDCFAGSGALGLEALSRYAAQATLLEMDRAVSQQLQKNLATLKANNARVVNTNTLTFLSQPGTPHHVVFVDPPFRKGLLEETLQLLETQGWLADDALIYVESEVENGLPPVPANWALYREKVAGQVAYRLYQRDAQGENDVD | soluble
MAHHHHHHSLSLQVTTKTGKESQKKTQTTAKSTITVDIKGAVKHEGVYTLPIDSRINDVIEKAGGFSEKADRKSVNLAQKLQDEAVIYVAAIGENISVIRDSQEGKTSQADKANTKETSVKGKVNLNTATLADLQTISGIGEKKAQDILDYREANGGFKSVDDLKNISGIGDKTFEKLKDLVSVDEG | not soluble
MAHHHHHHSTLRHSHEPSPYVQKGEDLSGQKLTPTIKSYRNMEFLNSYSGRMIRILCEFEEPKQRLQQHFIRTTVLFFGSARSMTQAQYDSTVQDIHSKLAAATDDSTKASLQNKLACLKKTQWMCKWVDVVENLARMVAEFSQKEQDMIIRSFRHIPDYFRLTPEDGSESLDDLQKRFHDLVVTTGGGPGFMEAANHGAESVPGAVTMGMGISLPFENGLNPHVTKGLAFEFHYFFTRKFWMMYSCRAIVIAPGGFGTLDEMFELLTLKQTKKIPSLPVVLLGKEFWQTVVNWQALANYGVISQEEIDSLLFTDSAEEAVEHIKDFYHRLASDSPSTE | soluble
MAHHHHHHVDDDDKMVPYTVRFTTTARRDLHKLPPRILAAVVEFAFGDLSREPLRVGKPLRRELAGTFSARRGTYRLLYRIDDEHTTVVILRVDHRADIYRR | soluble
MAHHHHHHVSASPPQRDRGSPPTRPLSEPQDVDAPAAGTVQALRQAVEAQEACVRLLRARQAAREALLRHTRRLLTADDSIEWPGSVEQLVRQVEASLHKLQQAHSEAAAPAATTADNVAPTSAPSRSPRNAAGDADPSADPLARIFHSGVEAQLAAVAEPPHTLPASTLASRSSTAKRRKEAGESGLTNAVSTTSPPPGGPFPPRSAAMTALLARSASRQEAGHAAMLAALSALELSLMSNSGATEVGRDVHNAEPAWLRQVDSDSANDDDAAPEEQQQEKEGNRGDIASSDYSDDFECGSSTSSGADD | soluble
MAHHTKETMELIKELVSIPSPSGNTAKIINFIENYVSEWNVETKRNNKGALILTVKGKNDAQHRLLTAHVDTLGAMVKEIKPDGRLSLSMIGGFRWNSVEGEYCEIETSSGKTYTGTILMHQTSVHVYKDAGEAKRDEKNIEVRIDERVFSADEVRELGIEVGDFVSFDPRVQITESGYIKSRHLDDKVSVAILLKLIKRLQDENVTLPYTTHFLISNNEEIGYGGNSNIPEETVEYLAVDMGALGDGQASDEYTVSICAKDSSGPYHYALRKHLVELAKTNHIEYKVDIYPYYGSDASAAIRAGFDVKHALIGAGIDSSHAFERTHESSIAHTEALVYAYVMSNLIEE | soluble
MAHLSYWFKQALELEQPQPAKPLNEDIAADVAIIGGGYTGLWTAIMIKQQAPKKHVVVIEKGLCGSGASGANGGCMLTWSTKFPTLKRLFGEAQAAWLVKESEQAVLEIDAFCKQHHIDAQLSLKGVYYTATNHVQAGSMQPVVDELSRLGVNSWRRCKEDELHANTGSPRHLEGFHSSVAASVQPALLARGLRRVALEMGIEIFENTPMTKLDFGQPATVSTPDAQIKAKQVVLALNAWMVEHFTQFKNSIVVVSSDMVITKPLGESLRKTGWQAGTSVLDSRIFVHYYRDTPDGRLMLGKGGNQFSFNNQVDVMFNKPTRYQNLLRKSFDKLFPSLKEAEFEYSWTGGSDRSTSGFPFFGKLNEQRNVFYGFGYSGNGVAQTRMGGKILSSMVLGLDNEWTRSGLAKGPLGHFPPEPFRWIGAMTVRNAVRRKEEAEDCGQKPFIWDKWLAKLAGPAGKADKLDLEHHHHHH | soluble
MAHTGRMFKIEAAEIVVARLPLKFRFETSFGVQTHKVVPLLILHGEGVQGVAEGTMEARPMYREETIAGALDLLRGTFLPAILGQTFANPEAVSDALGSYRGNRMARAMVEMAAWDLWARTLGVPLCTLLGGHKEQVEVGVSLGIQADEQATVDLVRRHVEQGYRRIKLKIKPGWDVQPVRATREAFPDIRLTVDANSAYTLADAGRLRQLDEYDLTYIEQPLAWDDLVDHAELARRIRTPLCLDESVASASDARKALALGAGGVINLKVARVGGHAESRRVHDVAQSFGAPVWCGGMLESGIGRAHNIHLSCLSNFRLPGDTSSASRYWERDLIQEPLEAVDGLMPVPQGPGTGVTLDREFLATVTEAQEEHRA | soluble
